Experimental data from US20220056084A1 (CONSEJO SUPERIOR DE INVESTIGACIONES CIENTIFICAS CSIC, published 2022).

Molecular target: the molecule itself
Test: gel filtration and sedimentation velocity (self-association)

B1: H10-LOV543m3-WH1 (other)
chain: MGSSHHHHHHHHHHSSGLVPRGSLATTLERIEKNFVITDPRLPDNPIIFASDSFLQLTEYSREEILGRNCRFLQGPETDRATVRKIRDAIDNQTEVTVQLINYTKSGKKFWNLFHLQPMRDQKGDVQYFIGVQLDGTEHVRDAAEREAVMEAKKTAENIDEAAKLIESSHTLTLNEKRLVLCAASLIDSRKPLPKDGYLTIRADTFAEVFGIDVKHAYAALDDAATKLFNRDIRRYVKGKVVERMRWVFHVKYREGQGCVELGFSPTIIPHLTMLHKEFTSYQLK
notes: Chimera of Avena sativa LOV2 (G528A, L531E, I532A) and wild-type RepA-WH1; carries the FMN chromophore; Dimer in solution; also called LOV2m3-WH1; LOV543-WH1m3; not shown: N-terminal His10 tag peptide
binding result: binds
